In patent publication US12698507B2, “Methods and compositions for conferring and/or enhancing herbicide tolerance using protoporphyrinogen IX oxidase of various cyanobacteria or variant thereof” (FarmHannong Co., Ltd., priority 2019, dated 2026):
Numbering of substitutions follows the chain as printed. Names and notes keep the numbering of the source.

System: PPO-deficient BT3 E. coli (ΔPPO)
Experiment: PPO-inhibiting herbicide tolerance test of PPO variants in E. coli (growth on herbicide-containing LB agar)
Format: cell-based
Details: CyPPO19 variants in BT3 (ΔPPO) E. coli; LB agar with 0 to 2,000 μM herbicide, 37° C., dark, 16-20 hours
In short: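 PPO-deficient BT3 E. coli expressing each variant from pET303 were diluted to OD600=0.5, then 10-fold serially, and spotted on LB-ampicillin agar with 0 to 2,000 μM herbicide. After 16-20 h at 37° C. in the dark, growth relative to wild type was scored from '−' (equivalent) to '+' per 10-fold resistance, max '+++++'.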

B1: CyPPO19 V305L + L327T + F360V: variant of CyPPO19 PPO protein (SEQ ID NO: 1) (protein)
chain: MSEVDVAIVGGGLSGLSLAWRLQQSAPQYSVVLLEASDRLGGNITTQTAEGFVWELGPNSFAPTPALLQLIAEVGLQSELIRGDRHLPRYIYWRGQLYPLQPTRPLALATSNLLSPWGKVRAALGALGFVPPYLGSGDESVNSFFRRHLGQEVAERLVAPFVSGVYAGDPQQLSAAAAFRRIAQLEKLGGGLIAGALHLRRQQAPKPKPPTSVQMRPGELGSFKEGLAALPRAIAQQLKAPIHLQTPVQEITPDPKGGYLLRSGEQTWRARSVVLATPAYQTAELVAPFQPAIARVLATIPYPTLACVVLAYPAGLGRSVRPGFGVTIPRSQGIRTLGTIWSSCLFPQRTPAGWQVFTSVIGGATDPDLASLSEEAIVQQVQQDLNRLLDLPAAKARLLGMKVWRRAIPQYMVGYPEQWQQVTHALSQTPGLFLCSNYAEGVALGDRVEHGNRTAAAVAAYLSGGQP
modifications: Synthetic_PPO of Thermosynechococcus elongatus PKUAC-SCTE542 (comprising GenBank No. CP032152.1)
tolerance level relative to wild type, Carfentrazone: + (‘+’ per each 10-fold resistance)
tolerance level relative to wild type, Flumioxazin: +++++ (until ‘+++++’ as maximal resistance)
tolerance level relative to wild type, Fomesafen: + (‘+’ per each 10-fold resistance)
tolerance level relative to wild type, Oxyfluorfen: +++ (‘+’ per each 10-fold resistance)
tolerance level relative to wild type, Saflufenacil: +++ (‘+’ per each 10-fold resistance)
tolerance level relative to wild type, Sulfentrazone: ++ (‘+’ per each 10-fold resistance)
tolerance level relative to wild type, Tiafenacil: +++++ (until ‘+++++’ as maximal resistance)

B2: CyPPO19 V305L + I408R + F360L: variant of CyPPO19 PPO protein (SEQ ID NO: 1) (protein)
chain: B1 chain with T327L, V360L, I408R
modifications: Synthetic_PPO of Thermosynechococcus elongatus PKUAC-SCTE542 (comprising GenBank No. CP032152.1)
tolerance level relative to wild type, Carfentrazone: + (‘+’ per each 10-fold resistance)
tolerance level relative to wild type, Flumioxazin: ++++ (‘+’ per each 10-fold resistance)
tolerance level relative to wild type, Fomesafen: + (‘+’ per each 10-fold resistance)
tolerance level relative to wild type, Oxyfluorfen: ++ (‘+’ per each 10-fold resistance)
tolerance level relative to wild type, Saflufenacil: +++++ (until ‘+++++’ as maximal resistance)
tolerance level relative to wild type, Sulfentrazone: ++ (‘+’ per each 10-fold resistance)
tolerance level relative to wild type, Tiafenacil: +++++ (until ‘+++++’ as maximal resistance)

B3: CyPPO19 V305M + I408W + F360I: variant of CyPPO19 PPO protein (SEQ ID NO: 1) (protein)
chain: B1 chain with L305M, T327L, V360I, I408W
modifications: Synthetic_PPO of Thermosynechococcus elongatus PKUAC-SCTE542 (comprising GenBank No. CP032152.1)
tolerance level relative to wild type, Carfentrazone: + (‘+’ per each 10-fold resistance)
tolerance level relative to wild type, Flumioxazin: +++++ (until ‘+++++’ as maximal resistance)
tolerance level relative to wild type, Fomesafen: +++ (‘+’ per each 10-fold resistance)
tolerance level relative to wild type, Oxyfluorfen: +++ (‘+’ per each 10-fold resistance)
tolerance level relative to wild type, Saflufenacil: +++++ (until ‘+++++’ as maximal resistance)
tolerance level relative to wild type, Sulfentrazone: +++ (‘+’ per each 10-fold resistance)
tolerance level relative to wild type, Tiafenacil: +++++ (until ‘+++++’ as maximal resistance)

B4: CyPPO19 L327T + I408W + F360V: variant of CyPPO19 PPO protein (SEQ ID NO: 1) (protein)
chain: B1 chain with L305V, I408W
modifications: Synthetic_PPO of Thermosynechococcus elongatus PKUAC-SCTE542 (comprising GenBank No. CP032152.1)
tolerance level relative to wild type, Carfentrazone: ++ (‘+’ per each 10-fold resistance)
tolerance level relative to wild type, Flumioxazin: +++++ (until ‘+++++’ as maximal resistance)
tolerance level relative to wild type, Fomesafen: +++++ (until ‘+++++’ as maximal resistance)
tolerance level relative to wild type, Oxyfluorfen: +++++ (until ‘+++++’ as maximal resistance)
tolerance level relative to wild type, Saflufenacil: +++++ (until ‘+++++’ as maximal resistance)
tolerance level relative to wild type, Sulfentrazone: ++++ (‘+’ per each 10-fold resistance)
tolerance level relative to wild type, Tiafenacil: +++++ (until ‘+++++’ as maximal resistance)

B5: CyPPO19 V165C + F360L: variant of CyPPO19 PPO protein (SEQ ID NO: 1) (protein)
chain: B1 chain with V165C, L305V, T327L, V360L
modifications: Synthetic_PPO of Thermosynechococcus elongatus PKUAC-SCTE542 (comprising GenBank No. CP032152.1)
tolerance level relative to wild type, Carfentrazone: + (‘+’ per each 10-fold resistance)
tolerance level relative to wild type, Flumioxazin: ++++ (‘+’ per each 10-fold resistance)
tolerance level relative to wild type, Fomesafen: +++ (‘+’ per each 10-fold resistance)
tolerance level relative to wild type, Oxyfluorfen: ++ (‘+’ per each 10-fold resistance)
tolerance level relative to wild type, Saflufenacil: ++++ (‘+’ per each 10-fold resistance)
tolerance level relative to wild type, Sulfentrazone: ++++ (‘+’ per each 10-fold resistance)
tolerance level relative to wild type, Tiafenacil: ++++ (‘+’ per each 10-fold resistance)

B6: CyPPO19 V305M + I408W + F360V: variant of CyPPO19 PPO protein (SEQ ID NO: 1) (protein)
chain: B1 chain with L305M, T327L, I408W
modifications: Synthetic_PPO of Thermosynechococcus elongatus PKUAC-SCTE542 (comprising GenBank No. CP032152.1)
tolerance level relative to wild type, Carfentrazone: + (‘+’ per each 10-fold resistance)
tolerance level relative to wild type, Flumioxazin: +++++ (until ‘+++++’ as maximal resistance)
tolerance level relative to wild type, Fomesafen: +++ (‘+’ per each 10-fold resistance)
tolerance level relative to wild type, Oxyfluorfen: +++ (‘+’ per each 10-fold resistance)
tolerance level relative to wild type, Saflufenacil: +++++ (until ‘+++++’ as maximal resistance)
tolerance level relative to wild type, Sulfentrazone: ++++ (‘+’ per each 10-fold resistance)
tolerance level relative to wild type, Tiafenacil: +++++ (until ‘+++++’ as maximal resistance)

B7: CyPPO19 V305M + L327T + F360T: variant of CyPPO19 PPO protein (SEQ ID NO: 1) (protein)
chain: B1 chain with L305M, V360T
modifications: Synthetic_PPO of Thermosynechococcus elongatus PKUAC-SCTE542 (comprising GenBank No. CP032152.1)
tolerance level relative to wild type, Carfentrazone: + (‘+’ per each 10-fold resistance)
tolerance level relative to wild type, Flumioxazin: +++ (‘+’ per each 10-fold resistance)
tolerance level relative to wild type, Fomesafen: ++ (‘+’ per each 10-fold resistance)
tolerance level relative to wild type, Oxyfluorfen: ++ (‘+’ per each 10-fold resistance)
tolerance level relative to wild type, Saflufenacil: +++ (‘+’ per each 10-fold resistance)
tolerance level relative to wild type, Sulfentrazone: +++ (‘+’ per each 10-fold resistance)
tolerance level relative to wild type, Tiafenacil: +++ (‘+’ per each 10-fold resistance)

B8: CyPPO19 L327T + I408R + F360M: variant of CyPPO19 PPO protein (SEQ ID NO: 1) (protein)
chain: B1 chain with L305V, V360M, I408R
modifications: Synthetic_PPO of Thermosynechococcus elongatus PKUAC-SCTE542 (comprising GenBank No. CP032152.1)
tolerance level relative to wild type, Carfentrazone: + (‘+’ per each 10-fold resistance)
tolerance level relative to wild type, Flumioxazin: +++++ (until ‘+++++’ as maximal resistance)
tolerance level relative to wild type, Fomesafen: ++ (‘+’ per each 10-fold resistance)
tolerance level relative to wild type, Oxyfluorfen: +++ (‘+’ per each 10-fold resistance)
tolerance level relative to wild type, Saflufenacil: +++ (‘+’ per each 10-fold resistance)
tolerance level relative to wild type, Sulfentrazone: + (‘+’ per each 10-fold resistance)
tolerance level relative to wild type, Tiafenacil: +++++ (until ‘+++++’ as maximal resistance)

B9: CyPPO19 R89A + V165C + A167C + F360I: variant of CyPPO19 PPO protein (SEQ ID NO: 1) (protein)
chain: B1 chain with R89A, V165C, A167C, L305V, T327L, V360I
modifications: Synthetic_PPO of Thermosynechococcus elongatus PKUAC-SCTE542 (comprising GenBank No. CP032152.1)
tolerance level relative to wild type, Carfentrazone: + (‘+’ per each 10-fold resistance)
tolerance level relative to wild type, Flumioxazin: +++ (‘+’ per each 10-fold resistance)
tolerance level relative to wild type, Fomesafen: ++ (‘+’ per each 10-fold resistance)
tolerance level relative to wild type, Oxyfluorfen: + (‘+’ per each 10-fold resistance)
tolerance level relative to wild type, Saflufenacil: +++ (‘+’ per each 10-fold resistance)
tolerance level relative to wild type, Sulfentrazone: ++ (‘+’ per each 10-fold resistance)
tolerance level relative to wild type, Tiafenacil: +++ (‘+’ per each 10-fold resistance)

B10: CyPPO19 R89A + V165S + V305M + F360M: variant of CyPPO19 PPO protein (SEQ ID NO: 1) (protein)
chain: B1 chain with R89A, V165S, L305M, T327L, V360M
modifications: Synthetic_PPO of Thermosynechococcus elongatus PKUAC-SCTE542 (comprising GenBank No. CP032152.1)
tolerance level relative to wild type, Carfentrazone: + (‘+’ per each 10-fold resistance)
tolerance level relative to wild type, Flumioxazin: +++++ (until ‘+++++’ as maximal resistance)
tolerance level relative to wild type, Fomesafen: +++ (‘+’ per each 10-fold resistance)
tolerance level relative to wild type, Oxyfluorfen: ++ (‘+’ per each 10-fold resistance)
tolerance level relative to wild type, Saflufenacil: +++++ (until ‘+++++’ as maximal resistance)
tolerance level relative to wild type, Sulfentrazone: +++ (‘+’ per each 10-fold resistance)
tolerance level relative to wild type, Tiafenacil: +++++ (until ‘+++++’ as maximal resistance)
